Test results reported in patent US20050100554A1 (published 2005).

Experiments:
ribosomal protein L13 = molecular target: T1, ribosomal protein L13 (human, UniProt P26373 1-211); assay: Y2H; INT ID 396
T1 construct: also called RPL13; cbe_1380530

Prey1207 = molecular target: T2, Prey1207 (human, UniProt Q6PI78 63-240); assay: Y2H; INT ID 409
T2 construct: also called LOC157378; hypothetical protein BC017881
T2 sequence: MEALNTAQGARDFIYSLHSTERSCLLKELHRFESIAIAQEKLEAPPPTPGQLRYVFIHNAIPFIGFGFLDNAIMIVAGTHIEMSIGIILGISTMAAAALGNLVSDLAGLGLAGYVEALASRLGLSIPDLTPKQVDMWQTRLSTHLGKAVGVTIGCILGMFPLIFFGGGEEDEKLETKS

Y2H; INT ID 393 = molecular target: the molecule itself; assay: Y2H; INT ID 393
[1] = molecular target: T3, tumor necrosis factor, alpha-induced protein 1 (endothelial) (human, UniProt Q13829 1-316); assay: Y2H; INT ID 402
T3 construct: also called TNFAIP1; cbe_3705944
T3 sequence: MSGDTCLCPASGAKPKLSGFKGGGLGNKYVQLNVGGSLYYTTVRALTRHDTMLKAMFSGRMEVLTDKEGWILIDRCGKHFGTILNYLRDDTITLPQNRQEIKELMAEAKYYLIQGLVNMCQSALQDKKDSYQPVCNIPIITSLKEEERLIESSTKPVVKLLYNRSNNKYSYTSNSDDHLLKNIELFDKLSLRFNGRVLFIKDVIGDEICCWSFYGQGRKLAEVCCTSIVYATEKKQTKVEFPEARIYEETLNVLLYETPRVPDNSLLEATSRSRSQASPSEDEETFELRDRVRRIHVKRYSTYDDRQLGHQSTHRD

CKM = molecular target: T4, CKM (human, UniProt P06732 1-381); assay: Y2H; INT ID 403
T4 construct: also called MARK4
T4 sequence (P06732 whole entry): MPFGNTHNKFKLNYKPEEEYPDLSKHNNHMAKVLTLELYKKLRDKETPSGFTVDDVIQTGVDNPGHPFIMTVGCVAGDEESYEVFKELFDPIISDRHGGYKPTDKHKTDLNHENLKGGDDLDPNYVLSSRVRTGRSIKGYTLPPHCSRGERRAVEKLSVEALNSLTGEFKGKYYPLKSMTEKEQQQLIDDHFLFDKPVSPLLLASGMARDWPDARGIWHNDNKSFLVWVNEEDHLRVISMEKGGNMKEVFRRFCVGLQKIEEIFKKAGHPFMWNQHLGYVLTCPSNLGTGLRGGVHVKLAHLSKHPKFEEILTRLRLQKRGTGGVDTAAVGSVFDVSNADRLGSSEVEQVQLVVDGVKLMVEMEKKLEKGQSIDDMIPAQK

[2] = molecular target: T5, catenin (cadherin-associated protein), delta 2 (neural plakophilin-related arm-repeat protein) (human, UniProt Q9UQB3 1-1225); assay: Y2H; INT ID 397
T5 construct: also called CTNND2; cbe_1796502
T5 sequence: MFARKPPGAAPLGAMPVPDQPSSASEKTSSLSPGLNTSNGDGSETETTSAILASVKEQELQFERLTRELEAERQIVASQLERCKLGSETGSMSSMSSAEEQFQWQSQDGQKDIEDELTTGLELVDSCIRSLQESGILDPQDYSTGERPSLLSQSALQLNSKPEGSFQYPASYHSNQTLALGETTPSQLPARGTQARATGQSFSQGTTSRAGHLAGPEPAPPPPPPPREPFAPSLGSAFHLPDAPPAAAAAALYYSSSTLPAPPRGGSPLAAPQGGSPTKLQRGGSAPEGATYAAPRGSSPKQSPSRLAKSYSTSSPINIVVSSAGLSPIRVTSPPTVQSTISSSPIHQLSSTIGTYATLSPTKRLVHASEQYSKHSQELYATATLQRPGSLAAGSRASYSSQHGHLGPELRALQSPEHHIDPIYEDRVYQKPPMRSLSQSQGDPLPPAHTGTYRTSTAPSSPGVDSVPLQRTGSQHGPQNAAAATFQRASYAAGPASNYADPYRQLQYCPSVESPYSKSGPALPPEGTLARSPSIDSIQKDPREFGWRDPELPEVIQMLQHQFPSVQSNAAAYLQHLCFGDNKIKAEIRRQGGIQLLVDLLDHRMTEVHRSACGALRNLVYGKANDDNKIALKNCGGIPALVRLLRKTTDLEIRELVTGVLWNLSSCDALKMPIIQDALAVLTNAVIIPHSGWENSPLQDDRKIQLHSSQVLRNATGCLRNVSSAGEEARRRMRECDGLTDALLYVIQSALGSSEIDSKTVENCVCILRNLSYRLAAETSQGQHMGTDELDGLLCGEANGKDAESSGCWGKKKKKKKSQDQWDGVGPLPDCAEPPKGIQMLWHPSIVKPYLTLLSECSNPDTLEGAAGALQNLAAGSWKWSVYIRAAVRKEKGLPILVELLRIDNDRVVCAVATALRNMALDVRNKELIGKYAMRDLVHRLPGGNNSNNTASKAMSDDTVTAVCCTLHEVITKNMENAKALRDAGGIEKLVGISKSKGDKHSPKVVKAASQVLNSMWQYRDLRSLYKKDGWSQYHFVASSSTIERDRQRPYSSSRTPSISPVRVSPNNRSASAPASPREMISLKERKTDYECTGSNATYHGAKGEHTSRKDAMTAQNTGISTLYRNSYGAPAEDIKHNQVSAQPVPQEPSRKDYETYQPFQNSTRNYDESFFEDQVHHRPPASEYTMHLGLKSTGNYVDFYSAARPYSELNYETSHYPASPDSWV

[3] = molecular target: T6, hypothetical protein FLJ22729 (human, UniProt Q96QE5 203-360); assay: Y2H; INT ID 398
T6 construct: also called cbe_1807361
T6 sequence: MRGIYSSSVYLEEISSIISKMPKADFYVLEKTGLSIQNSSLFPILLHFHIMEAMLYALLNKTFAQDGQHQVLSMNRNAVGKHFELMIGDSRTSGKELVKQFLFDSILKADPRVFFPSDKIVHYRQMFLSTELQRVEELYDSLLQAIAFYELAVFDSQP

[4] = molecular target: T7, tripartite motif-containing 29 (human, UniProt Q14134 1-588); assay: Y2H; INT ID 404
T7 construct: also called TRIM29; cbe_3833533
T7 sequence: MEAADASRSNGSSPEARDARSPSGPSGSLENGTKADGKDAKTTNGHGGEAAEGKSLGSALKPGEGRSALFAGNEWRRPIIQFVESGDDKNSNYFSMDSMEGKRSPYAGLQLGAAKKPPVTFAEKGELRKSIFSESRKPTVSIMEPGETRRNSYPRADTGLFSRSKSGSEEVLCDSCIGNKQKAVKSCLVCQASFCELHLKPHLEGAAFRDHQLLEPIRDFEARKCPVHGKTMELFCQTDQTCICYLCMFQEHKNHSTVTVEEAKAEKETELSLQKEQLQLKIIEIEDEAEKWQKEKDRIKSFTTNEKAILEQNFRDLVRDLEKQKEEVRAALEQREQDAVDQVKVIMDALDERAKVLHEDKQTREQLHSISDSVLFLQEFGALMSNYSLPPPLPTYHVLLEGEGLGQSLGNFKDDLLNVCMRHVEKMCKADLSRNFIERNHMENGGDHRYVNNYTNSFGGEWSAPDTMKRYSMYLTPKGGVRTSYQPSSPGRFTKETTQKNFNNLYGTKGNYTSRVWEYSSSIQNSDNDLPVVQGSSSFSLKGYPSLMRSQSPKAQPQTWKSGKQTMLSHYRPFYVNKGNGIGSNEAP

Measured: binding result

B1: Human Papillomavirus 1a E1-E4 (other)
chain: MADNKAPQGLLGLLQYTPTTQPYPRVTPPSNRRPSTTPNSQDRGRPRRSDKDSRKHLYADGLTDGEDPEVPEVEDEEKENQRPLGHPDLSLLRETLEVYTQRLKRDILQDLDDFCRKLGIHPWSV
notes: also called HPV 1a E1-E4; cbe_251740
binds: all assays above
